Three molecules from US20150110817A1, “RADIO-PHARMACEUTICAL COMPLEXES” (published 2015) can be followed below.

Test [1] concerns the target CD22 on CD22-positive Raji or Ramos cells (human) (UniProt P20273). Nature of the test: flow cytometry on CD22-positive Raji cells.
Test [2] concerns the target CD33 on CD33-positive HL-60 cells (human, UniProt P20138). Nature of the test: flow cytometry on HL-60 cells, 50:50 mixture; competitor: mouse anti-human CD33 reference mAb. (In general: In flow cytometry, cells or beads pass a laser one at a time.)
Procedure: Binding to CD33-positive HL-60 cells were studied by flow cytometry. The determination of EC₅₀ based on the plotted curve gives an approximate value for the affinity.
The mAb or conjugate to be analyzed was prepared fresh form frozen stock by shifting the storage buffer to PBS, kept at 4° C., and used within a few days after preparation. […] The secondary antibody reagent was prepared at 0.015 mg/mL in PBS, supplemented with 0.1% BSA. The mAb stock was diluted in 10-fold dilution steps, starting from 5 mg/mL. An isotype control mAb (trastuzumab) was prepared accordingly. 20 uL from each dilution step of the anti-human CD33 mAb was added to wells containing HL-60 cells. After incubation for 1 h at 4° C. the cells were spun down and washed three times with 200 μl cold PBS, supplemented with 0.1% BSA. A solution containing 4% goat serum was added as a blocking agent, and incubated for 15 minutes. 20 μl from the secondary antibody reagent was subsequently added to each well, before incubation for 30 min at 4° C. in the dark.
The cells were washed twice, as described above, and re-suspended in 200 μL PBS, supplemented with 0.1% BSA. All samples were analysed in 96-well round or conical bottom plates. Fluorescent signals were recorded on a Beckham Coulter Cell lab Quant SC flow cytometer (Beckman Coulter; CA, USA). […]

On to “AGC1100 (anti-CD22 monoclonal antibody hLL2, also called epratuzumab)”, for which, in test [1], the EC50 (in general, the concentration needed to bring the measured effect to its halfway point) amounted to 9 nM.

B1: AGC1115 (AGC1100 conjugated to the water soluble chelator AGC0015) (antibody, INN chains, looked up, V domains shown)
VH: QVQLVQSGAEVKKPGSSVKVSCKASGYTFTSYWLHWVRQAPGQGLEWIGYINPRNDYTEYNQNFKDKATITADESTNTAYMELSSLRSEDTAFYFCARRDITTFYWGQGTTVTVSS
VL: DIQLTQSPSSLSASVGDRVTMSCKSSQSVLYSANHKNYLAWYQQKPGKAPKLLIYWASTRESGVPSRFSGSGSGTDFTFTISSLQPEDIATYYCHQYLSSWTFGGGTKLEIK
modifications: conjugated to chelator AGC0015
On to B1, for which the EC50 in test [1] came out at 6 nM.

B2: AGC0700 (anti-CD33 monoclonal antibody, generated from the HuM195 template) (antibody, V domains shown)
VH: QVQLVQSGAEVKKPGSSVKVSCKASGYTFTDYNMHWVRQAPGQGLEWIGYIYPYNGGTGYNQKFKSKATITADESTNTAYMELSSLRSEDTAVYYCARGRPAMDYWGQGTLVTVSS
VL: DIQMTQSPSSLSASVGDRVTITCRASESVDNYGISFMNWFQQKPGKAPKLLIYAASNQGSGVPSRFSGSGSGTDFTLTISSLQPDDFATYYCQQSKEVPWTFGQGTKVEIKR
For B2, in test [2], the “fold less antibody bound” value was approximately 0.7 fold.
